The record followed here is article PMC3079584, “A Cytoplasmic Complex Mediates Specific mRNA Recognition and Localization in Yeast” (PLoS Biology, 2011).

The target in experiment [1] is T1, She2p (wild type) (Saccharomyces cerevisiae, UniProt P36068 1-246).
T1 construct: She2p, Saccharomyces cerevisiae, Gene ID 853728; also called She2p (wt); wild-type She2p
The experiment can be described thus: SEC; analytical; She2p, His-She3p C-terminal fragment and RNA (ternary complex formation, Figure 4E); which RNA is not told in the legend. To be noted: both partners purified. (In gel filtration, larger molecules generally elute earlier.)

The target in experiment [2] is T1, She2p (wild type). The experiment is described as follows: pull-down; His-tagged She3p (full length, point mutants, or MBP-She3p fragment-His) on nickel sepharose, no RNA; 7.5–10 µM of each protein, HNMD-buffer (20 mM HEPES pH 7.8, 200 mM NaCl, 2 mM MgCl2, 2 mM DTT) with 30–50 mM imidazole, 30–60 min at 4°C; SDS-PAGE, Coomassie. The settings on record: both partners purified.

T1 sequence (P36068 whole entry): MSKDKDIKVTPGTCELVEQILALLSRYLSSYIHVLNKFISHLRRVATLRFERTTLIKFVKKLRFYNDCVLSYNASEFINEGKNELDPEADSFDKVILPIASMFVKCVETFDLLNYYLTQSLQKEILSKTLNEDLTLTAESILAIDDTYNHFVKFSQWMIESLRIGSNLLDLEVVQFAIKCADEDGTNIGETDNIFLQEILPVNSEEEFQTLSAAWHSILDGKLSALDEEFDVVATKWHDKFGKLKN

B1: His-She3p (334–425) (domain or fragment, Saccharomyces cerevisiae)
chain: GPLGSMGNSSNNKRRSFYTASPLLSSGSIPKSASPVLPGVKRTASVRKPSSSSSKTNVTHNNDPSTSPTISVPPGVTRTVSSTHKKKGNSMVVHGAQS
notes: it precedes G334 at the N-terminus of the construct
For B1, in the experiment with She2p (wild type) [1], the binding result is “binds”.

B2: MBP-She3p(334–425)-His (domain or fragment, Saccharomyces cerevisiae, UniProt P38272 334-425, looked up)
chain: GNSSNNKRRSFYTASPLLSSGSIPKSASPVLPGVKRTASVRKPSSSSSKTNVTHNNDPSTSPTISVPPGVTRTVSSTHKKKGNSMVVHGAQS
Take B2: in the experiment with She2p (wild type) [2], the binding result is reported as “binds”.

B3: MBP-She3p(354–425)-His (domain or fragment, Saccharomyces cerevisiae, UniProt P38272 354-425, looked up)
chain: GSIPKSASPVLPGVKRTASVRKPSSSSSKTNVTHNNDPSTSPTISVPPGVTRTVSSTHKKKGNSMVVHGAQS
For the molecule B3, in the experiment with She2p (wild type) [2], the binding result is given as “binds”.
